The text below walks through data of patent publication US6867003.

This assay has as its target insulin receptor partially purified from CHO-IR cells (Chinese Hamster Ovary cells expressing high levels of insulin receptors of human origin) (human) (UniProt P06213). The experiment in a line: cell-based or functional assay.

B1: GST-mGrb10 (protein, mouse, UniProt Q60760 1-621, looked up, not shown: a dimerising Fc or GST)
chain: MNNDINSSVESLNSACNMQSDTDTAPLLEDGQHASNQGAASSSRGQPQASPRQKMQRSQPVHILRRLQEEDQQLRTASLPAIPNPFPELTGAAPGSPPSVAPSSLPPPPSQPPAKHCGRCEKWIPGENTRGNGKRKIWRWQFPPGFQLSKLTRPGLWTKTTARFSKKQPKNQCPTDTVNPVARMPTSQMEKLRLRKDVKVFSEDGTSKVVEILTDMTARDLCQLLVYKSHCVDDNSWTLVEHHPQLGLERCLEDHEIVVQVESTMPSESKFLFRKNYAKYEFFKNPVNFFPDQMVNWCQQSNGGQAQLLQNFLNTSSCPEIQGFLQVKEVGRKSWKKLYVCLRRSGLYYSTKGTSKEPRHLQLLADLEESSIFYLIAGKKQYNAPNEHGMCIKPNKAKTEMKELRLLCAEDEQIRTCWMTAFRLLKYGMLLYQNYRIPQRKGLPPPFNAPMRSVSENSLVAMDFSGQIGRVIDNPAEAQSAALEEGHAWRKRSTRMNILSSQSPLHPSTLNAVIHRTQHWFHGRISREESHRIIKQQGLVDGLFLLRDSQSNPKAFVLTLCHHQKIKNFQILPCEDDGQTFFTLDDGNTKFSDLIQLVDFYQLNKGVLPCKLKHHCIRVAL
B1 came in with an amount giving 50% inhibition of the tyrosine kinase activity of the receptors (32P incorporation into poly Glu-Tyr) of 0.13 µg.
